Results on four compounds are retold here after article PMC10099132, “Sequence and Structural Motifs Controlling the Broad Substrate Specificity of the Mycobacterial Hormone-Sensitive Lipase LipN” (ACS Omega, 2023).

Series [1] deals with T1, MmLipN (LipN from M. marinum) (Mycobacterium marinum, UniProt B2HIK1).
T1 construct: E. coli LOBSTR (DE3); Ni-NTA
T1 sequence (B2HIK1 1-372): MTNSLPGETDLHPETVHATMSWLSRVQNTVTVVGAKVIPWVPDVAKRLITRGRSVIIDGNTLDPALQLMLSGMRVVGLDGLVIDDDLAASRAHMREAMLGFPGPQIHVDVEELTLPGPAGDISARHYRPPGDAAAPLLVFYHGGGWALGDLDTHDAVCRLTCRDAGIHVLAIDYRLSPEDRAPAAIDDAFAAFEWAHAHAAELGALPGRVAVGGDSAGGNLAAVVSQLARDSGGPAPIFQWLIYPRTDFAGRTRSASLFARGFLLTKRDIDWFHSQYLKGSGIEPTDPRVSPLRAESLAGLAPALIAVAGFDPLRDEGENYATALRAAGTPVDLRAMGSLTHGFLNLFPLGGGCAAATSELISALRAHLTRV
Briefly: p-nitrophenol release at […] nm, Michaelis-Menten fit. The series is classed as biochemical. As to conditions: PBS, acetylated BSA 0.1 mg/mL, acetonitrile, 36 nM enzyme, 25 °C.

The subject of series [2] is CC(=O)OCOc1ccc2c(c1)Oc1cc(OCOC(C)=O)ccc1C21OC(=O)c2ccccc21. Nature of the series: purified protein, by the assay type. The arrangement: fluorogenic ester hydrolysis, fluorescein release, Michaelis-Menten fit of initial rates. Here is the method:
(§1) The enzyme kinetic activity of LipN was assayed via the hydrolysis of the fluorogenic substrates (Figure 1) in accordance with past kinetic analysis of mycobacterial serine hydrolases.[37],[38],[40],[66],[67] Kinetic assays were run in triplicate on black 96-well plates in a Synergy H1 Hybrid Reader (BioTek). Fluorogenic ester substrates (10 mM in DMSO) were diluted to a starting concentration of 100 μM in PBS containing acetylated BSA (Sigma; 0.1 mg/mL). Eight serial dilutions (1:1; 120 μL into 240 μL total volume) of each substrate were made using PBS–BSA. Fluorogenic substrate dilutions (95 μL) were then transferred to opaque 96-well microplate (Corning, Lowell, MA). Reactions were initiated by quickly adding enzyme (5 μL, 3.0 nM final concentration) to each assay well, mixed, and the fluorescence counts measured every 26–30 s for 4.5 min with a BioTek H1 Synergy multimode plate reader (Biotek Instruments; Winooski, VT) at ambient temperature. The instrument measured relative fluorescence through excitation at λ = 485 nm and emission at λ = 520 nm. The fluorescence change was converted to molar concentrations using a fluorescein standard curve (300–2.3 nM), whose fluorescence was measured simultaneously. The initial rates of the enzyme-catalyzed reactions were measured in triplicate and plotted versus fluorogenic substrate concentration. […] (A) Activation of fluorogenic ester substrates by MmLipN. Each of the substrates is composed of diacyloxymethyl ether fluorescein with varying R-groups. The differing R-groups have been organized into classes and colored based on chemical functionality. All of the substrates were synthesized as described previously.[38],[43] Substrates 6, 10–11, 14–15, 20, 23–30, and 33 were newly synthesized for this characterization of MmLipN. Detailed synthetic characterization is provided in the Supporting Information. (B) Global comparison of the catalytic specificity (kcat/KM) of MmLipN against each of the 33 substrates with ester classes labeled. Catalytic efficiency values (kcat/Km) are given ± SD based on at least three independent kinetic replicates. (C, D) Kinetic activity of MmLipN against high-activity ester substrates 1 (black circles), 7 (blue squares), and 20 (red diamonds) and low-activity ester substrates 12 (green circles), 16 (red squares), 27 (purple diamonds), and 31 (orange squares). Low- and high-activity substrates display classic Michaelis–Menten kinetics with MmLipN and activity above background hydrolysis rates. Traces colored based on ester classification from (A, B). All measurements were completed in at least triplicate and shown ± SD.

The test system of series [3] is CS(=O)(=O)C1(C(=O)OCOc2ccc3c(c2)Oc2cc(OCOC(=O)C4(S(C)(=O)=O)CC4)ccc2C32OC(=O)c3ccccc32)CC1. Nature of the series: purified protein, by the assay type. Also on record: fluorogenic ester hydrolysis, fluorescein release, Michaelis-Menten fit of initial rates. Here is the method:
as §1

The test system of series [4] is O=C(OCOc1ccc2c(c1)Oc1cc(OCOC(=O)c3ccco3)ccc1C21OC(=O)c2ccccc21)c1ccco1. Briefly: purified protein, by the assay type. Also on record: fluorogenic ester hydrolysis, fluorescein release, Michaelis-Menten fit of initial rates. Here is the method: as §1
For series [5], the system named is O=C1OC2(c3ccc(OCOC(=O)C4(C(F)(F)F)CC4)cc3Oc3cc(OCOC(=O)C4(C(F)(F)F)CC4)ccc32)c2ccccc21. Nature of the series: purified protein, by the assay type. The arrangement: fluorogenic ester hydrolysis, fluorescein release, Michaelis-Menten fit of initial rates. The protocol:
as §1

Series [6] has as its system O=C1OC2(c3ccc(OCOC(=O)C4(O)CC4)cc3Oc3cc(OCOC(=O)C4(O)CC4)ccc32)c2ccccc21. Briefly: purified protein, by the assay type. The arrangement: fluorogenic ester hydrolysis, fluorescein release, Michaelis-Menten fit of initial rates. Here is the method:
as §1

For series [7], the system named is O=C1OC2(c3ccc(OCOC(=O)C4CCCC4)cc3Oc3cc(OCOC(=O)C4CCCC4)ccc32)c2ccccc21. Briefly: purified protein, by the assay type. Also on record: fluorogenic ester hydrolysis, fluorescein release, Michaelis-Menten fit of initial rates. Here is the method:
as §1

Series [8] relates to CCCC(=O)Oc1ccc([N+](=O)[O-])cc1. Nature of the series: purified protein, by the assay type. The arrangement: p-nitrophenyl ester hydrolysis, absorbance at 412 nm, Michaelis-Menten fit. The source says:
(A) Classic p-nitrophenyl ester substrates were used as conformation for fluorogenic substrate measurements (Figure 1). (B) Catalytic efficiency comparison of MmLipN against p-nitrophenyl substrates. Catalytic efficiency values (kcat/Km) are given ± SD. (C, D) Kinetic activity of MmLipN against (C) short alkyl ester substrates: p-nitrophenyl acetate (C2) and p-nitrophenyl butyrate (C4) and (D) longer alkyl ester substrates: p-nitrophenyl valerate ([…]), p-nitrophenyl octonoate (C8), and p-nitrophenyl myristate (C14). Data points were fitted to the Michaelis–Menten equation and are shown ± SD.

In general, Km refers to the substrate concentration at which the rate is half of its maximum. In general, kcat refers to the maximal rate divided by the concentration of active sites. What is called kcat/Km is the second-order rate constant that governs catalysis at low substrate concentration.

Regarding `CCCCC(=O)Oc1ccc([N+](=O)[O-])cc1` [p-nitrophenyl valerate], the KM entry in series [1] was “MmLipN was measured against p-nitrophenyl acetate, p-nitrophenyl butyrate, p-nitrophenyl valerate”.

On to `CC(=O)Oc1ccc([N+](=O)[O-])cc1` [p-nitrophenyl acetate], for which the KM result in series [1] is recorded as “The enzymatic activity of MmLipN was measured against p-nitrophenyl acetate”.

For the compound `CCCC(=O)Oc1ccc([N+](=O)[O-])cc1` [p-nitrophenyl butyrate], the KM result in series [1] is given as “LipN showed highest activity against p-nitrophenyl butyrate”.

With “MmLipN (LipN from M. marinum) (Mycobacterium marinum M)”, the Michaelis constant (Km) in series [2] worked out at 0.22 ± 0.12 µM; in series [3] it was 0.084 ± 0.15 µM; in series [4], 0.84 ± 0.60 µM; in series [5], 0.37 ± 0.13 µM; in series [6], 0.40 ± 0.10 µM; in series [7], 33.9 ± 7.71 µM. Moreover, the Km in series [8] worked out at 20 ± 9 µM. Also, the kcat was 0.1 ± 0.038 s⁻¹ in series [2]; 1.4e-05 ± 5e-05 s⁻¹ in series [3]; 0.003 ± 0.0048 s⁻¹ in series [4]; 3.7e-05 ± 3e-05 s⁻¹ in series [5]; 0.0029 ± 0.0016 s⁻¹ in series [6]; 0.0012 ± 0.0001 s⁻¹ in series [7]. Also, the kcat in series [8] was found to be 190 ± 10 s⁻¹. The kcat/Km was determined as 460000 ± 150000 M⁻¹ s⁻¹ in series [2]; 170 ± 330 M⁻¹ s⁻¹ in series [3]; 3500 ± 3100 M⁻¹ s⁻¹ in series [4]; 98 ± 43 M⁻¹ s⁻¹ in series [5]; 7400 ± 2200 M⁻¹ s⁻¹ in series [6]; 29 ± 4 M⁻¹ s⁻¹ in series [7]. Moreover, the kcat/Km in series [8] stood at 9.3e+06 ± 2.1e+06 M⁻¹ s⁻¹.
